# Target: "Bac-wt" human IL-23 (identical to elastikine in sequence, expressed in SF9 cells) (human) (UniProt P29460)
# Assay: BIAcore SPR, antibody immobilised on CM5 chip, IL-23 in solution
row,Binder,Kd
1,"humanized anti-human IL-23p19 antibody 7G10 (antibody, human IgG1, kappa, V domains shown) VH: QVQLVQSGAEVKKPGASVKVSCKASGYTFTSNVMHWVRQAPGQGLEWMGYINPYNDGTKYNEKFKGRVTMTTDTSTSTAYMELRSLRSDDTAVYYCARNWDVAYWGQGTLVTVSS VL: DIQMTQSPSSLSASVGDRVTITCRASQSISDYLHWYQQKPGKAPKLLIYYASQSISGVPSRFSGSGSGTDFTLTISSLQPEDFATYYCQNGHSFPFTFGQGTKVEIKR",10 nM
2,"humanized anti-human IL-23p19 antibody 6H12 (antibody, human IgG1, kappa, V domains shown) VH: QVQLVQSGAEVKKPGASVKVSCKASGYTFNRYLIHWVRQAPGQGLEWMGYINPNNAGTNYNEKFKGRVTMTTDTSTSTAYMELRSLRSDDTAVYYCARNWDQAYWGQGTLVTVSS VL: DIQMTQSPSSLSASVGDRVTITCRASQSISDYLHWYQQKPGKAPKLLIYYTSQSISGVPSRFSGSGSGTDFTLTISSLQPEDFATYYCQNGHSFPFTFGQGTKVEIKR",5.1 nM
